Data on six variants can be found in IntAct's records for PubMed 22982544.

First the molecules themselves.
B1: Autophagy-related protein (Plasmodium falciparum (isolate 3D7)), Q8IJK2 (parent)
chain: MPSLKDEVSFENRVAETHKIRSKYPNRIPVVCERANRSNLPIIEKKKFLVPMNMLVGEFKFILHQHINQSAYGSNMKLFRERTIYLFVNNIVPKTGLLMQDLYEMYKDEDGYLYMEYSCESCLG
B2: - (Plasmodium falciparum (isolate 3D7)), C0H519 (parent)
chain: MSDQINVKHKIGDTCRKLYSYFKTVNNTSTFIQNGTLTPSEFVDSGDFLVYKFKTWEWQEADKDRVVPYLPENKQFLITKNVPCKQRIKDLNNIVHDLKIVDNDWLLPSYEEDNNPTDIYEYLPNSEYTINDKNIYNYEEEEEDDNCDEAIDINNFYMENNLIKEHDPASINSTSCYSKNMLHDNLMKIRTYDVSITYDKYYQTPRIWLFGYNENGDPLKSEEIFEDILSDYSYKTVTYDPHPCTGVMTASIHPCKHAEAILNVVNNWISEEKEPRHDLYLLFLLKFISGVIPTIEYDFTTDIEIPRDSNAGL

The first assay covers variants of B1. To be noted: with c0h519, C0H519.
For K19E;K47E, the “effect of a mutation on the interaction” value is on record as “disrupting interaction”.
Turning to E44A;K45S;K46A, the “effect of a mutation on the interaction” value is recorded as “decreasing interaction”.
Turning to K47E, the “effect of a mutation on the interaction” value is recorded as “disrupting interaction”.
For the variant L49A, the “effect of a mutation on the interaction” value is given as “decreasing interaction”.
For the variant R27E, the “effect of a mutation on the interaction” value was “disrupting interaction”.

A further assay covers variants of B2. The note with it: with q8ijk2, Q8IJK2.
As for W105A, the “effect of a mutation on the interaction” value is “decreasing interaction”.
